Patent US20160362487A1 (Regeneron, published 2016)

T1: human IL-33 (R&D Systems, #3625-IL-010/CF) (human, UniProt O95760 112-270)
T1 sequence (looked up): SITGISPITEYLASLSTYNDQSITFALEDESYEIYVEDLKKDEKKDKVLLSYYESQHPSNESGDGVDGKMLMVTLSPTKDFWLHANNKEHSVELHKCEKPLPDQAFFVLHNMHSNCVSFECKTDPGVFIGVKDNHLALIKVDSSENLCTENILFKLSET

T2: cynomolgus monkey IL-33 expressed with a C-terminal hexahistidine tag (cynomolgus monkey)
T2 construct: also called MfIL-33-6His; Mf-IL-33-6His
T2 chain: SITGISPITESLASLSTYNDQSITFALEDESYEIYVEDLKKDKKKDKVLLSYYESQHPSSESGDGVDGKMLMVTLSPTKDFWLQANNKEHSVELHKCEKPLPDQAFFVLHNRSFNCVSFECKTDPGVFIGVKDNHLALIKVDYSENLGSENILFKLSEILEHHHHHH


Columns and labels:
[1] = biological target: T1, human IL-33 (R&D Systems, …); assay: cell-based or functional assay
[2] = biological target: T1, human IL-33 (R&D Systems, …); assay: cell-based or functional assay; remark: listed apart in the source
[3] = biological target: T1, human IL-33 (R&D Systems, …); assay: SPR 37C pH7.4, mAb captured
Procedure: (§1) Equilibrium dissociation constants (KD values) for IL-33 binding to purified anti-IL-33 monoclonal antibodies were determined using a real-time surface plasmon resonance biosensor using a Biacore 4000 instrument. The Biacore sensor surface was first derivatized by amine coupling with either a polyclonal rabbit anti-mouse antibody (GE, # BR-1008-38) or with a monoclonal mouse anti-human Fc antibody (GE, # BR-1008-39) to capture anti-IL-33 monoclonal antibodies expressed with mouse or with human IgG4 constant regions, respectively. All Biacore binding studies were performed in 0.01M ADA pH 7.4, 0.15M NaCl, 3 mM EDTA, and 0.05% v/v Surfactant Tween-20 (ABS-ET running buffer). […] Association of either hIL-33 or MfIL-33-6His to the captured monoclonal antibody was monitored for 4 minutes and their dissociation in ABS-ET running buffer was monitored for 10 minutes. The effect of reduced pH on the binding of each anti-IL-33 antibody to either hIL-33 or MfIL-33-6His was studied using an in-line pH chase assay format in 0.01M ADA pH 6.0, 0.15M NaCl, 3 mM EDTA, and 0.05% v/v Surfactant Tween-20 (ABS-ET pH6 buffer). To achieve this, association of either hIL-33 or MfIL-33-6His to the captured monoclonal antibody was monitored for 4 minutes in ABS-ET running buffer. Following a 30 second dissociation of either hIL-33 or MfIL-33-6His in ABS-ET running buffer, ABS-ET pH6 buffer was injected for 3 minutes, and the analyte dissociation under the low-pH conditions was measured. All the binding kinetic experiments were performed at both 25° C. and 37° C. Kinetic association (kₐ) and dissociation (kd) constants were determined by fitting the real-time sensorgrams to a 1:1 binding model using Scrubber 2.0c curve fitting software. Binding dissociation equilibrium constants (KD) and dissociative half-lives (t½) were calculated from the kinetic rate constants as: […]

[4] = biological target: T2, cynomolgus monkey IL-33 expressed with …; assay: SPR 37C pH7.4, mAb captured
Procedure: as §1

[5] = biological target: T2, cynomolgus monkey IL-33 expressed with …; assay: BLI; captured MfIL-33-6His, mAb-1 step with Buffer
Procedure: Binding competition between a panel of different anti-IL-33 monoclonal antibodies was determined using a real time, label-free bio-layer interferometry assay on an Octet® HTX biosensor (ForteBio, A Division of Pall Life Sciences). The experiment was performed at 25° C. using a buffer of 0.01M HEPES pH7.4, 0.15M NaCl, 3 mM EDTA, 0.05% v/v Surfactant Tween-20, and 0.1 mg/ml BSA (HBS-ET kinetics buffer) with the plate shaking at a speed of 1000 rpm. […] The antigen-captured biosensors were then saturated with a first anti-IL-33 monoclonal antibody (subsequently referred to as mAb-1) by immersion into wells containing 50 μg/mL solution of mAb-1 for 5 minutes. The biosensors were then dipped into wells containing a 50 μg/mL solution of a second anti-IL-33 monoclonal antibody (subsequently referred to as mAb-2) for 4 minutes. The biosensors were washed in HBS-ET kinetics buffer in between every step of the experiment. The real-time binding response was monitored during the experiment, and the maximum binding response for each binding step was recorded. The response of mAb-2 binding to MfIL-33-6His pre-complexed with mAb-1 was measured, and competitive/non-competitive behavior of different anti-IL-33 monoclonal antibodies with respect to each other was determined.

[6] = biological target: T3, pre-formed complex of hIL-33 and captured hST2-MMH (human, UniProt O95760 112-270); assay: SPR Biacore T-200, 25C
T3 construct: Ligand-receptor complex on the sensor: hST2-MMH captured by anti-myc mAb and saturated with 100 nM hIL-33; also called hIL-33 pre-complexed with hST2-MMH
Procedure: The ability of anti-IL-33 antibodies to bind to a pre-formed complex of IL-33 with ST2 was tested using Biacore T-200 instrument equipped with a real-time surface plasmon resonance biosensor. The experiment was performed at 25° C. with a running buffer composed of 0.01M HEPES pH 7.4, 0.15M NaCl, 3 mM EDTA, and 0.05% v/v Surfactant Tween-20 (HBS-ET). […] The captured hST2-MMH surface was then saturated by injecting 100 nM of human IL-33 (hIL-33; R&D Systems, #3625-IL-010/CF) for 3 minutes followed by a 3 minute injection of a 100 nM solution of the anti-IL-33 monoclonal antibody. The real-time binding response was monitored during the entire course of the experiment, and the observed binding response at 3 minutes after injection of anti-IL-33 antibody to the pre-formed complex of hIL-33 and captured hST2-MMH was recorded and tabulated and shown in Table 7. No non-specific binding of anti-IL-33 monoclonal antibody to the anti-myc tag capture surface was observed.

IC50, blocking of human basophil degranulation induced by 100 pM human IL-33, donor 655687 [1] | IC50, blocking of human basophil degranulation induced by 100 pM human IL-33, donor 655688 [1] | IC50, blocking of IFN-γ release from human PBMC induced by 260 pM hIL-33, donor #603486 [2] | IC50, blocking of IFN-γ release from human PBMC induced by 260 pM hIL-33, donor #603487 [2] | Kd [3] | koff [3] | kon [3] | t½ [3] | Kd [4] | koff [4] | kon [4] | t½ [4] | mAb-2 Binding to the Pre-complex of mAb-1 & MfIL-33-6xHis [5] | binding result [6] | Binder
5.79e-10 M | 4.47e-10 M | 1.25e-09 M | 2.71e-09 M | 0.57 nM | 0.000403 s⁻¹ | 707000 M⁻¹ s⁻¹ | 29 min | 3.11 nM | 0.00186 s⁻¹ | 598000 M⁻¹ s⁻¹ | 6 min | 0.31 nm |  | H4H9659P (antibody, human IgG4, V domains shown, Human IgG4 Fc (H4H)) VH: QVQLVQSGAEVKKPGASVKVSCKASGYTFNSYGISWVRQAPGQGLEWMGWISSHNGNSHYVQKFQGRVSMTTDTSTSTAYMELRSLRSDDTAVYYCARHSYTTSWYGGFDYWGQGTLVTVSS VL: DIQMTQSPSSVSASVGDRVTITCRASQGFSSWLAWYQQKPGKAPQLLIYAASSLQSGVPSRFSGSGSGSDFTLTISSLQPEDFATYYCQQANSFPLTFGGGTKVEIK
 |  | 8.07e-09 M | 1.88e-08 M | 0.618 nM | 0.000603 s⁻¹ | 976000 M⁻¹ s⁻¹ | 19 min | 4.66 nM | 0.00317 s⁻¹ | 681000 M⁻¹ s⁻¹ | 4 min | 0.3 nm |  | H4H9667P (antibody, human IgG4, V domains shown, Human IgG4 Fc (H4H)) VH: EVQLVESGGGLVQPGGSLRLSCAASGFTFSTYSMHWVRQAPGKGLEYVSTINNNGDTTYYADSVKGRFTISRDNSKNTLYLQLGSLRPEDMAVYYCARQTYTSSWYGGFDSWGQGTLVTVSS VL: DIQMTQSPSSVSASVGDRVTITCRASQGITSWLAWYQQKPGKAPKLLIYAASNLQSGVPSRFSGSGSGTDFTLTITSLQPEDFATYYCQQANSLPFTFGPGTKVDIK
 |  | 3.98e-09 M | 6.08e-09 M | 1.39 nM | 0.000721 s⁻¹ | 519000 M⁻¹ s⁻¹ | 16 min | 16.2 nM | 0.00584 s⁻¹ | 361000 M⁻¹ s⁻¹ | 2 min | 0.31 nm |  | H4H9664P (antibody, human IgG4, V domains shown, Human IgG4 Fc (H4H)) VH: QVQLVESGGGVVQPGRSLRLSCAASGFTFSSYGLHWVRQSPGKGLEWVALISYDGSNKYYADSVKGRFTISRDNSKNTLYLQMNSLRPEDTAGYFCAKSLYTTSWYGGFDYWGQGTLVTVSS VL: DIQMTQSPSSVSASVGDRVTITCRASQGIRSWLAWYQQKPGKAPNLLIYAASSLQSGVPSRFSGSGSGTDFTLTISSLQPEDFATYYCQQANSFPPTFGPGTKVDIK
 |  | 2.97e-09 M | 8.62e-09 M | 0.938 nM | 0.00114 s⁻¹ | 1.21e+06 M⁻¹ s⁻¹ | 10 min | 5.08 nM | 0.00607 s⁻¹ | 1.2e+06 M⁻¹ s⁻¹ | 1.9 min | 0.29 nm |  | H4H9671P (antibody, human IgG4, V domains shown, Human IgG4 Fc (H4H)) VH: EVQLVESGGGLVQPGGSLRLSCAASGFTLRSYFMTWVRQVPGKGLEGVSAISGISGGTYYTDSVKGRFTISRDNSKNTLFLQMNSLRAEDTAVYFCARTVYSSSYYGGFQHWGQGTLVTVSS VL: DIQMTQSPSSVSVSVGDRVTITCRASQGISSWLAWYQQKPGKAPKLLIYVASSLQSGVPSRFSGSGSGTDFTLTISSLQPEDFATYYCQQTNSFPLTFGGGTKVEIK
 |  | 9.64e-10 M | 3.02e-09 M | 0.443 nM | 0.00062 s⁻¹ | 1.4e+06 M⁻¹ s⁻¹ | 19 min | 2.24 nM | 0.00158 s⁻¹ | 707000 M⁻¹ s⁻¹ | 7 min | 0.26 nm | no binding (tested: 100 nM) | H4H9662P (antibody, V domains shown, Human IgG4 Fc (H4H)) VH: EVQLVESGGGLVQPGGSLRLSCAASGFTFSSYALTWVRQAPGKGLEWVSFISGSGGRPFYADSVKGRFTISRDNSKNMLYLQMNSLRAEDTAIYYCAKSLYTTSWYGGFDSWGQGTLVTVSS VL: DIQMTQSPSSVSASVGDRVTITCRASQGVVSWLAWYQQKPGKAPKLLIYAASSLQSGVPSRFSGSGSGTDFTLTISSLQPEDFATYYCQQSNSFPFTLGPGTKVDIK
 |  | 1.24e-08 M | 2.2e-08 M | 0.677 nM | 0.00124 s⁻¹ | 1.83e+06 M⁻¹ s⁻¹ | 9 min | 2.22 nM | 0.00361 s⁻¹ | 1.62e+06 M⁻¹ s⁻¹ | 3.2 min | 0.31 nm |  | H4H9663P (antibody, human IgG4, V domains shown, Human IgG4 Fc (H4H)) VH: QVQLVQSGAEVKKPGASVKVSCKASGYTFTGHYMYWMRQAPGQGLEWMGWINPNSGGTNYAQKFQDRVTMTRDTSISTAYMELSRLRSDDTAVYYCARGRYGSSWYGGFEYWGQGTLVTVSS VL: DIQMTQSPSSVSASVGDRVTITCRASQGITSWLAWYQQKPGKAPNLLIYAAASLQSGVPSRFSGSGSGTDFTLTISSLQPEDFTTYYCQQAYSLPLTFGGGTKVEIK
1.33e-10 M | 9.71e-11 M | 1.75e-10 M | 4.71e-10 M | 0.411 nM | 0.000872 s⁻¹ | 2.12e+06 M⁻¹ s⁻¹ | 13 min | 4.81 nM | 0.00491 s⁻¹ | 1.02e+06 M⁻¹ s⁻¹ | 2.4 min | 0.31 nm |  | H4H9675P (antibody, human IgG4, V domains shown, Human IgG4 Fc (H4H)) VH: EVQLVESGGNLEQPGGSLRLSCTASGFTFSRSAMNWVRRAPGKGLEWVSGISGSGGRTYYADSVKGRFTISRDNSKNTLYLQMNSLSAEDTAAYYCAKDSYTTSWYGGMDVWGHGTTVTVSS VL: DIQMTQSPSSVSASVGDRVTITCRASQGIFSWLAWYQQKPGKAPKLLIYAASSLQSGVPSRFSGSGSGTDFTLTISSLQPEDFAIYYCQQANSVPITFGQGTRLEIK
